According to patent US20160376333A1 (University of Washington, published 2016):

T1: Epstein-Barr virus BHRF1 a.a. 1-161 with C-terminal avi-6his tag (Epstein-Barr virus)
T1 construct: also called EBV BHRF1; BHRF1-biotin
T1 chain: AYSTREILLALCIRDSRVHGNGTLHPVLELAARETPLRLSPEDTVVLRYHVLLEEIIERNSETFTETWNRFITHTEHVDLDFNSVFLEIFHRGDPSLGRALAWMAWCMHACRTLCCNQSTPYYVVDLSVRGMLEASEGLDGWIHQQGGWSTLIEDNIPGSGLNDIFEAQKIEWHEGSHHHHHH


How the values were obtained:
[1] = target: T1, Epstein-Barr virus BHRF1 a.a. 1-161 …; test: yeast display library, FACS sort at 400 nM BHRF1, deep sequencing
[2] = target: T1, Epstein-Barr virus BHRF1 a.a. 1-161 …; test: yeast display library, FACS sort at 100 nM BHRF1, deep sequencing

| Binder | Log2 enrichment ratio [1] | Log2 enrichment ratio [2] |
| --- | --- | --- |
| Index 38 (designed binder) GEKLKKLAEELEKKFRKLFFILKDELDRAYLIALKTQVQRQELARDTKLWIAVALMIIGDLFNAEIQGKELRDKLIKKNQVEEQKAKEFWKKWEEVKQRAEELIKKGGEMVERLADYG | -1.46 log2 | -1.71 log2 |
| Index 39 (designed binder) GKKYLKAARLALYLLWEAYLRGYLNLLLDELEAEFFDPHDERKIRYTINWIADALMLIGDLFNARLKMEKALWELKKEGKLREEDYEKMERLFRKWMELAFKWLEHFREMAEKAKKKG | -2.01 log2 | -2.08 log2 |
| Index 40 (designed binder) GNEAEQRREEFKEIMEKKKDEAEKKSEKIKRLALAFDLSDDDKTKATDEWIAISLEIIGDAFNFGEGLKDEAKRRKKRGLKRDEEVDKFEKIAEQAIEELRKLAEEADERGAKHLRDG | -4.69 log2 | -3.7 log2 |
| Index 41 (designed binder) GEQEDKVKERAKRGALERAREMFEKMRKAIYLAELYINNDEGKTKLTDRWIAFALMMIGDIFNIALEARLEALKLVLKGLRSQEDAEKVKKLAEEAEREAAKRAAKLGDKMDEKEHEG | -2.39 log2 | -2.17 log2 |
| Index 42 (designed binder) GQQEEQFIEDFKKEVLRAADDAKDDMEKRAEEFLKKDGDDNEKKRKILKWIADALEAIGDLFNAAQEAKRRAELYFKLGLLKKERKEEAEEEAEKAKEEASKKLHKAAREARIKMEKG | -3.15 log2 | -3.63 log2 |
| Index 43 (designed binder) GKKAEEVLKEARKLHEAQLRYAYLMMKDWREKKQQEEKQTQREEKWTAWWIALMLMAIGDIFNFAEWAKEELDKLREKGLVEKKKAEEAKEKAEKLAEEASRRASEFAQLFAKWDKEG | -3.04 log2 | -2.44 log2 |
| Index 44 (designed binder) GESGEWILEKTREKIERAIRDAEKKLRLIILLIRLFHPGDDLRALFAAIWIAAELELIGDIFNEKQDAEEKFKELLKKNQFRWEELWRKWLILEWIFQKARRKSKELAERAKKAFDFG | -3.16 log2 | -3.29 log2 |
| Index 45 (designed binder) GYSLDDFLKLAKLLAELLKRFIRKEAERLRELKEWLLDTTLGRLILTLEWIAIELMIIGDIFNAKMLLDKFAKYAEWLGLMKEEEAKQAKKLAKLLLDEVKDEARKKADDGEKFAEEG | -3.17 log2 | -2.44 log2 |
| Index 46 (designed binder) GRDGERVVKWAKNQHENTVDEAKDKMDNQEDEMRKKNADDEKLRKETHKWIAFALEAIGDVFNDAMQAFELLERFKKFGQQEQKKLDEFKEKVERLAREASRKLTYLGKRFALDIESG | -3.6 log2 | -3.41 log2 |
| Index 48 (designed binder) GEKGKEKAQKFRDIIKDILEEAIRLAKDLAEDAKKFDLKLEKLLEATLKWIAAALMAIGDLFNFKDLAEKEVRERHDRGEISSDRRDKYEKEAREGADEAAKELSKLAKIAEKKILEG | -2.33 log2 | -2.8 log2 |
| Index 49 (designed binder) GWSKDWVLEWLREKLEEIDREALWKFILIWIEKMLGVDDDEQRRKDAAKWIAGSLEAIGDIFNAMMWAKRLLEWLEKANLVRREELEKAKQKAEELAKKAALRAAIYSKIAEEWLWKG | -1.22 log2 | -2.7 log2 |
| Index 50 (designed binder) GKRAEELREEAEERAKEAFKETEQKLREVEERSRQTLARDEELRKAALLWIAAALMGIGDLFNKKEKGKEALEKEEKNGKRRTERAEREKERLEKEVSREAQRFKKKGEEEEKKHKYG | -3.47 log2 | -3.79 log2 |
| Index 51 (designed binder) GWTALWLKDFTEQEARKKFREALYYGWMMAMRALEHQLQADELAMWTALWIAAMLEAIGDMFNDKLRAEKYALLLIWLNLYHKDIAEKWREEHEEKLKEALQEMFEAAEKFDKFAKFG | -2.43 log2 | -2.53 log2 |
| Index 52 (designed binder) GNDKEKFREDVKKKAKYALWKLKKLADEAKERALKFDPSEEMKREFTLEWIAWALEAIGDIFNAWLDGKKYADEAKKQGKARKEEAEETKKEATRIAKEAHEKASELARKILYHMLLG | -0.2 log2 | -0.83 log2 |
| Index 53 (designed binder) GHVAEEEIRRFLRKAEKVLQEARRKMEKRRREAEEHDTTTWLLARGTIEWIADALMLIGDAFNFRREAYIRGELYKKFGLIREDDLKDRLKEADQRLDEFAKKMALFGLELHLRLREG | 0.4 log2 | -0.29 log2 |
| Index 54 (designed binder) GDKHEEAKEEAEKKFEKLRIEARLKAEWLKKAGKYGLQLQELWAKLSDYWIAFALEIIGDLFNFLEEHKEKIEKDLKKGEALDDRADDILKDLEKKAKEVSKHAMKLGREAQQFIELG | -2.24 log2 | -3.22 log2 |
| Index 55 (designed binder) GEEAEKLIKEAKDKFEDLREKAEELLYKMWLIRYLSSKDTKRGEIYTKKWIAIMLMMIGDAFNMALRARLYLEERRKRGEKHEEEAEEKERRARWEQEDAYKKAKKGAKRARLYDKLG | -3.29 log2 | -2.69 log2 |
| Index 56 (designed binder) GESAEKWRERLREKAGYWAEYAFWLADEAEKRAKIYSASSERRAEWTMRWIAIALAAIGDVFNEGQKADEKFDELKKQNKRSDDDLDDYKDKFKEEVEKALRKLLKAGDKIADLAEQG | -3.81 log2 | -3.49 log2 |
| Index 57 (designed binder) GDLKEELKERAKKIIRRALDEAKDAEDLIKKEAEKRYVTTEMATKFVAWWIAGALMIIGDIFNAAREVKERAEKALKWGVLSQDDIKELLLELENLEQEAKERAKEFGEKAEKFKKMG | -2.85 log2 | -1.97 log2 |
| Index 58 (designed binder) GEKAKKLEEYAREEIERALREGGDLMEEEREFGEKTELTTEWKHRAMAYWIAAALMIIGDGFNALQFIEEEGRKFIRKGEFARQKIEEHKERAKERLEKALKQAKKRGDELDRFARLG | -2.11 log2 | -2.36 log2 |
| Index 59 (designed binder) GITLEKLWKEAKEKIRKREDEALLKAEWFKKKANNVLDLNDMKAKMTAKWIALALMAIGDIFNYLLETEIKARLLVRLGLFRQEEAEKKKEEAKEEAIKSSRNIAKRGEEAAKQMEQG | -2.36 log2 | -2.86 log2 |
| Index 60 (designed binder) GRQEDEIKDEATKRALEILQKLEQKVRKAKKFAKYGLLLQRWWAWITKVWIAAALDAIGDAFNLGEELKRILEELRRRGLSSEEKAQEIKNWIEWLEKWVAIMAKLFGEELEKQFKQG | -2.63 log2 | -2.91 log2 |
| Index 61 (designed binder) GEHLDELLLKLLWLAIQFAERAKLTIELWKLWGKITQSYNEWAEKAARDWIAAALMIIGDMFNHKQKAEEEAKKFAKKGLKRKEELEELLKKLEEFIKRAKKLIKETAQKHEEASKMG | -3.54 log2 | -2.79 log2 |
| Index 62 (designed binder) GKLGEELREDAEKKGEEDMRRFERRIREIKRKLKFGYDFEQRKREATHKWIAFALEMIGDAFNFAQKLERALELFKKWNIYSEDDLRELKKRFEEAKEKLKKFADRIRDEGLKAVLLG | -2.65 log2 | -3.21 log2 |
| Index 63 (designed binder) GDDKEKVKDYAKKRALEDVLRAKELAEKFIDEAKKSDHSKQNERQYIIAWIAFMLMAIGDVFNAMMEAKRLAELLKRLGLRRWEEAEEVKQKAEELAEEASRLLADLGKDFAKKIEQG | -2.41 log2 | -2.52 log2 |
| Index 64 (designed binder) GLSGDDAEDFARQEIEKRAREAEEKARKLIWLASKYDAKREEALKFHLRWIAFALMMIGDAFNAEEIAREMLEIARELGLTREEEAKEKLEKIRKKETEASKKMAERGRRLDNQANNG | -1.68 log2 | -3.51 log2 |
| Index 65 (designed binder) GNDLKDIARQIEEQAKKALDDMAKLIRELAEKAEKFYPSKDDIRRLTHYWIAAALMAIGDAFNRLQEARRRAEWLRKWGLRREEEAEKAKKEAEERHERAKELAHKMGDEMEEKLKRG | -2.31 log2 | -3.2 log2 |
| Index 66 (designed binder) GRSKDDATKEAWERLERLLKEFKEKAEKLRDKAQAHYVYKQFALKVTILWIAWALKLIGDAFNFIEEAEKKMRENRERNLISEDDAREEKRKLEEFARRASKKANKIGDDLDRQLELG | -2.49 log2 | -2.03 log2 |
| Index 68 (designed binder) GVSIEWAFDFLENKAEEDAREARRLAQKLAEEFFKHSAREEDRAKLTKKWIAVALMIIGDIFNVEQFTKQQGEEFVKRGLRSEDDFKEYLRKMEEKKEEAERIAKRAKDDMLKARDLG | -3.63 log2 | -2.57 log2 |
